# Columns and labels:
# [1] = Dynamic light scattering of GFC complex fractions; assay type: physicochemical; conditions: DLS, 25° C., H2O; ± SD
# Experimental: The same fractions derived from the preparative GFC that were characterized by analytical GFC, were also analyzed by dynamic light scattering (DLS) on a Malvern Zetasizer S®. Each DLS experiment contains was performed following the settings compiled in Table 5, the run duration and number of runs per measurement was set according to the auto-optimization of the Malvern Zetasizer software.
# [2] = Photoisomerization assay of cis-retinal complexes under daylight bulb, UV/Vis; assay type: physicochemical; conditions: for k, reaction velocity of photoisomerization: oxidized overnight at 4° C. with 5 mM oxidized glutathione, reduced with DTT
# Experimental: Photoisomerization assays of cis-retinal and its complexes with wild-type CRALBP or with di-cysteine mutant A212C:T250C of CRALBP were performed essentially as described by Saari et al. (Saari J C and Bredberg D L, ([…]), J Biol Chem. 262(16):7618-22). For this, the gel permeation chromatography purified ligand complexes were diluted to 26 μM in (GFC) buffer (10 mM Hepes, 100 mM NaCl, pH 7.5) and equimolar amounts of BSA were added to avoid protein precipitation through the light induced formation of free all-trans-retinal. […] Simultaneously UV/Vis absorption spectra were collected every 180 seconds for 3600 sec in total using the Evolution array UV/Vis spectrophotometer (Thermo Scientific). For photoisomerization experiments of the oxidized mutant A212C: T250C or the wild-type CRALBP, 5 mM oxidized glutathione was added to the preformed complexes and the mixtures were kept overnight at 4° C. For repeated reduction, the oxidized glutathion was first removed from the samples using a Vivaspin 15R Hydrosart (Sartorius) by three times concentrating the samples to a tenth of the volume and subsequent redilution in buffer (10 mM Hepes, 100 mM NaCl, pH 7.5) to the original volume. The washed samples were then reduced by adding 5 mM DTT and kept at 4° C. for 1 hour. […] Thus, the introduction of the A212C:T250C double mutation represents an engineered redox-sensitive on-off switch into human CRALBP allowing for a reversible turning on and off of CRALBP's mobile gate functionality. The two mutations are located at adjacent positions in the mobile gate's interface of CRALBP allowing for the formation of an intramolecular disulfide bond under oxidizing conditions and to regain the gate's native functionality under reducing conditions.
# [3] = both in complex with 11-cis-retinal; estimated from first order rate constants and extinction coefficients; cited from earlier work
# CRALBP = target: T1, CRALBP (Bos taurus, UniProt P10123); conditions: CRALBP isolated from bovine retina; cited from earlier work
# T1 construct: CRALBP was isolated from bovine retina; from tissue; host or cells: bovine retina
# T1 sequence (P10123 whole entry): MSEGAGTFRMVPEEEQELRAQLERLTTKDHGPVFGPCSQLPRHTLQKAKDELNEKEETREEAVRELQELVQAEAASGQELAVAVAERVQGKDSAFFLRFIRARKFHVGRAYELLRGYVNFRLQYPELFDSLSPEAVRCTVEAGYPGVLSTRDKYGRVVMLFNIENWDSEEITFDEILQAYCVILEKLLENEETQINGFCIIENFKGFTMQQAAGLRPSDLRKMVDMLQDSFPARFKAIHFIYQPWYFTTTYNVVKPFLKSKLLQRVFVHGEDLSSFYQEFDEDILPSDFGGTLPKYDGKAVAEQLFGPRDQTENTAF
compound,measurement,setting,value
dimeric complex: dimeric GFC fraction of A212C:T250C CRALBP loaded with 9-cis-retinal,average size distribution in diameter,[1],8.72±2.41 nm
"A212C:T250C: human CRALBP mutein with alanine 212 and threonine 250 replaced by cysteines, SEQ ID NO:9","increase of photostability (half-life t1/2), oxidized versus reduced redox state","[2]; FIG. 8, complex with cis-retinal, 1000 lux",20 fold
same,slowing down of the rate of photoisomerization,"[2]; oxidized state, FIG. 9, 380 lux, room temperature",at least 10 fold
same,behaviour in photoisomerization assay after repeat reduction,[2]; repeat reduction of the oxidized sample in 5 mM DTT,re-established wild-type like behavior
"CRALBP: CRALBP isolated from bovine retina, in complex with 11-cis-retinal",expected photoisomerization in CRALBP compared to rhodopsin,[3],4%
red. A212C:T250C: 11-cis-retinal: reduced A212C:T250C mutant in complex with 11-cis-retinal,"k, reaction velocity of photoisomerization",[2]; FIG. 9,5.988e-05 s⁻¹
SHMW: super high molecular weight oligomeric complex fraction of A212C:T250C CRALBP with 9-cis-retinal,average size distribution in diameter,[1],28.28±2.13 nm
HMW: high molecular weight oligomeric complex fraction of A212C:T250C CRALBP with 9-cis-retinal,average size distribution in diameter,[1],13.50±0.47 nm
monomeric complex of di-cysteine A212C:T250C CRALBP with 9-cis-retinal: monomeric GFC fraction of A212C:T250C CRALBP loaded with 9-cis-retinal,average size distribution in diameter,[1],6.50±1.50 nm
CC1=C(/C=C/C(C)=C\C=C\C(C)=C\C=O)C(C)(C)CCC1 [9-cis-retinal],Kd,CRALBP,53 nM
"wild-type: wild-type CRALBP in complex with cis-retinal, photoisomerization assay [reference compound]","k, reaction velocity of photoisomerization",[2]; FIG. 9,6.324e-05 s⁻¹
CC1=C(/C=C/C(C)=C/C=C/C(C)=C/C=O)C(C)(C)CCC1 [13-cis],binding to CRALBP,CRALBP,does not bind
CC1=C(/C=C/C(C)=C/C=C/C(C)=C/C=O)C(C)(C)CCC1 [11-cis-retinal],Kd,CRALBP,20 nM
oxidized A212C:T250C:9-cis-retinal: oxidized A212C:T250C mutant in complex with 9-cis-retinal,photoisomerization detectable,"[2]; FIG. 9, oxidized with 5 mM oxidized glutathione",No photoisomerization was detectable
ox. A212C:T250C: 11-cis-retinal: oxidized A212C:T250C mutant in complex with 11-cis-retinal,"k, reaction velocity of photoisomerization",[2]; FIG. 9,6.44e-06 s⁻¹
CC1=C(/C=C/C(C)=C/C=C\C(C)=C\CO)C(C)(C)CCC1 [11-cis-retinol],Kd,CRALBP,60 nM

# From patent publication US20240228559A1, “REDOX SENSITIVE CRALBP MUTANT PROTEINS” (UNIVERSITÄT BERN, priority 2021, published 2024)
